Test: label from the status in PepcDB records

Row | Sequence | protein production
1 | NRWITRPKFTHFDLHTLNWDLCLTQANHKSGLALDMLRMLLDSLPQTVSAIEAALSQNDQVTMLSTIHKLHGASCYCGVPTTQRLCQEIESALKREARVEDLEPEILELLDELTKVESAAKQVLSQLSAEITDDQKNGLL | failed
2 | MVVMIKLRDELGTATTDSAQKILLLGSGELGKEIAIEAQRLGVEVVAVDRYANAPAMQVAHRSYVGNMMDKDFLWSVVEREKPDAIIPEIEAINLDALFEFEKDGYFVVPNARATWIAMHRERLRETLVKEAKVPTSRYMYATTLDELYEACEKIGYPCHTKAIMSSSGKGSYFVKGPEDIPKAWEEAKTKARGSAEKIIVEEHIDFDVEVTELAVRHFDENGEIVTTFPKPVGHYQIDGDYHASWQPAEISEKAEREVYRIAKRITDVLGGLGIFGVEMFVKGDKVWANEVSPRPHDTGMVTLASHPPGFSEFALHLRAVLGLPIPGEWVDGYRLFPMLIPAATHVIKAKVSGYSPRFRGLVKALSVPNATVRLFGKPEAYVGRRLGIALAWDKDVEVAKRKAEMVAHMIELRTRSSDWHDQNYEKRKHLLR | not failed
3 | MSLSASLPLAIERRPAAWTFTLSRPEKRNALSAELVEALIDGVDAAHREQVPLLVFAGAGRNFSAGFDFTDYETQSEGDLLLRMVRIEMLLQRVAGSPSLTLALAHGRNFGAGVDLFAACKWRYCTPEAGFRMPGLKFGLVLGTRRFRDIVGADQALSILGSARAFDADEARRIGFVRDCAAQAQWPALIDAAAEAATALDPATRATLHRVLRDDHDDADLAALARSAAQPGFKARIRDYLAQPAAEGHHHHHH | not failed
4 | EMTLVTLRSNDQFNTTIYGFSDRLRGLEGPRNVLLMNPEEIARHGLHEGQRVTLECAWSDGVDRRVSGLRVTAYDLPDSCVGAYYPETNPLVPLAARDELSGTPAYKGTPVRVRAEGSAAPL | failed
5 | MYRLLALFVPPEAAFRTGRGFSFDAGEVTGAIGDSVTVLPLVVALGLLTPASLPHLLAGFGVFQVIWGLYYGVPLSVEPMKALAGLAIAGTLSHGGLVAAGLVAGGVLLVAGRTGSLSWIQQFVGEPVVRGVQFAVACLLVVAAVDLVAGSVGIAAAGAGLALVVALVSRNAVALVVLAVGAVWAATAGGIPAPAAPSLELFPAGGPTLSVGAIEGLLAQLAMTVGNAAVATSLLLSDLYDAEISPDRLADSMGAMNLAAVPLGAVPMCHGSGGLAGKHAFGARTGTANLVAGGFYAGLALVAGLLAAFPMALLGVLLVVVAASLSRVAFTKTDRRLFVAGVGGLAVVTNVAVAFVAATLWWQLRG | failed
6 | TVEEVIEETPEKSELELANERADEFENKYLRAHAEMQNIQRRSSEERQQLQRYRSQDLAKAILPSLDNLERALAVEGLTDDVKKGLEMTRDSLIQALKEEG | not failed
7 | MSAPHDSHTLINVLTLNAHMGFDLLKRRFILAALREAIREVCAEIVCLQEVLGEHALHARRHAQWPAVAHYEYLAEMLWPQFSYGRNAVYPHGHHGNAVLSKFPISSFANHDVSVPGHEPRGVLHAVLQVPGWSEELQVFCVHLGLHEAHRQQQIGLLCARVAALSADAPVVVAGDFNDWRARGHPLLTRCGLVEAVECMHGRVARSFPSRFPVLPLDRIYLRNLRVVQARVLSGLPWSRLSDHLPLLASIAP | failed
8 | MYNTVVYSIVVPLYNEELVIDENYMRLKKIMDSLKENYEIMYVNDGSKDSTMNKVEKICEKDKRIKLVNFSRNFGHQCAISAGMELSAGDAIIVIDADLQDPPEVIPQMIDKWKDGYDVVYGKRLKRKGESFLKKFTAKIFYRLLRSITNIDIPVDTGDFRLIDRKVCDTLSSLPERNRYVRGLVSWVGFKQTFVEFTRQERFAGASKYPLKKMLKLAFDGITSFSYKPLVASTYLGGLMFLLGLLAFIYVTAKNLYSHKTILTLGLILAINLCMFGLIFIILGILGQYIGRISDESKARPNYIIASTINYKENIKEVEPSEVKLN | failed
9 | MATETQIRIGVMGCADIARKVSRAIHLAPNATISGVASRSLEKAKAFATANNYPESTKIHGSYESLLEDPEIDALYVPLPTSLHVEWAIKAAEKGKHILLEKPVAMNVTEFDKIVDACEANGVQIMDGTMWVHNPRTALLKEFLSDSERFGQLKTVQSCFSFAGDEDFLKNDIRVKPGLDGLGALGDAGWYAIRATLLANNFELPKTVTAFPGAVLNEAGVILSCGASLSWEDGRTATIYCSFLANLTMEITAIGTKGTLRVHDFIIPYKETEASFTTSTKAWFNDLVTAWVSPPSEHTVKTELPQEACMVREFARLVGEIKNNGAKPDGYWPSISRKTQLVVDAVKESVDKNYQQISLSGR | not failed
10 | MAGESGAPIRCRLLPIDMDAALGPPEQMAELEEDLTPMMAQYYELCRQYDDALVLFQVGDFYEAFCAAAKRVARLCEITLTQREDSTGEYPMAGIPIDNAESYVETLLDAGYRVAIADQVEDPDEVSGVVERAVTRIVTPGTLTESELLGGADNNYVAALTAGERYGLALLDISTGDCYATSVGSESAVADELSRFGPAEAIVGPDVDVDRDAVFGPACLVTRYDADAFAQDRAEDRVGQYFGPPERLLAGGAEIRACGGLLAYAEYTRGSSGAVGPDGEPVDPDVDPAGTLDYLNHLTRYDPREYMLLDAVAVESLELFKRRSVRGHENRTLVDTVDETACALGRRKLTDWLRRPLLDADRIEARHGAVAELQRDPATREELSALLAEVYDLERLISRVSRGRANARDLRSLAATLSVVPDIRDHLADADARLLADLHATLDPLAETREEIEAAIRPDPPQQVTEGGVIREGYDEELDRLRSTEQSGKEWIDELEASERERTGIDSLKVGHTSVHGYYIEVTNANLDAVPEDYQRRQTLKNSERYYTPALKEREDEILRAESAADDLEYDLFCAVRDEVADEAERVQALADRLARLDVLVSFAEVAAQYDYCRPTVGSDGIDVTAGRHPVVERTEDAFIPNDTHLGSGPVPASRDGSDDGVTADDIQPFLAVVTGPNMSGKSTYMRQVALICLLAQSGSFVPAKAADLPILDRVFTRVGASDDIAGGRSTFMIEMTELATILDAATENSLVLLDEVGRGTSTADGLAIARAVTEYLHDEVGAYTLFATHHHDLTAVAAALSGATNRHFETSREDGDVRFDHELAPGPAAASYGVEVASMAGVPDSVVERSRDLLADAETADTGVEATRETEVASEPRPGTRADSETDSTATETTGPTENGAASAPAGEATSDDHAQEVFQTNGAAAEDELPESVAQQLASLDVATMTPIEAMNALADLQDRIE | failed
11 | MQELLFIRLNELILLIYLFSIACYFFDFIKRFYKIRNIGFVTLGIVWVLQTISLSFYVTATNQVPLGNVFDVLFALAWLIISISIVISVIKQVNISIFLFNIIGFVFIAISTFQPMHYQGAGEKLNVINELLIVHVTFAIISYAIFAFAFVNSILYLIQFKNLKQKRFTQKYFRISSVATLEKVVFYNSLVGFLFIILSIILGAQWGINTIGMDIFVDPKVIMSVIITILYGLYLLLRVRQSISKHKLIYINIILFCLNMINLLFTSHVSDFHQWTGI | failed
12 | MANSITADEIREQFSQAMSAMYQQEVPQYGTLLELVADVNLAVLENNPQLHEKMVNADELARLNVERHGAIRVGTAQELATLRRMFAIMGMYPVSYYDLSQAGVPVHSTAFRPIDDASLARNPFRVFTSLLRLELIENEILRQKAAEILRQRDIFTPRCRQLLEEYEQQGGFNETQAQEFVQEALETFRWHQSATVDEETYRALHNEHRLIADVVCFPGCHINHLTPRTLDIDRVQSMMPECGIEPKILIEGPPRREVPILLRQTSFKALEETVLFAGQKQGTHTARFGEIEQRGVALTPKGRQLYDDLLRNAGTGQDNLTHQMHLQETFRTFPDSEFLMRQQGLAWFRYRLTPSGEAHRQAIHPGDDPQPLIERGWVVAQPITYEDFLPVSAAGIFQSNLGNETQTRSHGNASREAFEQALGCPVLDEFQLYQEAEERSKRRCGLLLEHHHHHH | not failed
13 | MNSLPSPHPPLSPAVPVASRAALRLAELGVFVLTALVVNMPSGLLPFGVCLLGGTLLGWRSLRAGLATQGWSLRVLTGLTAVVIAMSVLSIVLFEPSVRDVENRSRFLVLPWAALWAYALQPRQVWLWRGALAGVFAAMLVAILQVMNGAERAEGWTNAIVFADIALMLLVVAIFCRPNGQVRWLLGAAVAAVAVIVLSGSRGVWLSLLVTLGVLVWGAPWQSARMRLLAFVGGAVVCVGLVLSVPGLTEQLRIGELQSDFQRYEVGDADSSAGARIERLHVAWDTLQAHPLTGVGVGRFDDAMRELPLCAGDTWLLRCHLGHAHNDLAEWGATQGIPGLLLLIAVYGVPLWMFVRLHRRSGQRQFRGPAAAGVMIVISYALCGLTQSMFAHQVSASFYAAMVGILAGLAARQAQQHATAASPLAQSAR | failed
14 | MRQYMRTFLLVAVIFVFGFSIRMLNAGYDDPLYTDDDGLQYFQESDSYYNYRLTENLAIRGIPGDAVIGGKIWDLHSYYPPGVPLDYPAGILLLAVILHAITGVIAPVSLRAVCLIMPPLLAPLAGVICFFTVKRFQGDIPAFIAGLLLVSAPFYLVKTVYGLYDTDMLILTLSMAVLFLFIEADAREVNRVPLSAIGGFILFLFSITWSGWQVMFYVTLVTFIILILTSGSRKPLRNILGNIPTGLHGSVYPFNLFNHLELIKLIMTPLHIHDLVDKSIWYPWPDSYTTVAELQPAYMDKVLGHISPALTVLGAAGIPAYYMLYRRKGSVGLPVIFISVWIATGALMLLEGIRFVMILIAPLSVSAGIFTGILLDCSRKFRFRWIKGVLFILIIFTVSAQLAISGNMVADLKPGYNDYFEESAHWIAENTPSDAVIITEWSYGHFYASEADRPVVYDGRLAYIETLPARGVWYGSSMDPEIPTTARDYWINLSLSSENRTLSLNILRMLANSGDDAYILLKNQTGSEVQAYRIMNEILGLNRESAMDVLMHRYGFSESEALRILNMTHPMTSRKIVVVVPEKMIGLIASKGDSGDMPAGTYSLIRLKDDVIEEEIINSSGNVTVLETTDGSYRINRKYRKSLLLELIMGVNDENFSLVYRNKQIKVYIINS | failed
15 | MTSALNRLQPLNGNNMKLKTLLLFVALIQSVVSMAQQDWKGDYTRAKQVYQLQKYEIAMEYFLPVTSPDAANPYASYAQYYYSLSAYKAGKYNEARQMLLQLINRDPNWKQISEAHYLLAGVYFELKQYRFGMTSLTFVQGMESSVTTFRQSYYAKIAPLDTLIKLQRVYSSDKELAKALFNQLAAYPVNSKNNMLYEYLAQEFKFTKLNRTVTYVTKTEYHVAVILPFNLSESNSENYKSGYAYEMYQGILTAVDSLKEDGVTIKIHTYDADRDVMKIQAILNYPEMKGMDLIIGPLFPSLIPYVTNFGELNNIPVINPISFNSNIIENKTQTLLFQPTLESIAGQVSSFAKEKFVYRKNSSKDNDLKPKNNVLIFYSTELKDSLLAVYYRDSLQVKGFKVSKFVKVTKENIGTVGKIFSDSISLLTTSHVFVASGEPVLASNIVSALEISRQNVPVITKSDWLDINNQTYEQFERRNIYIIYPDYFAFYTDAYRSFKAAYIKKYNVYPSKYTIIGYELMSLVGDKMRTAGTGYFNLMRTSPVSKGHFTAGYDFSKKPCNNYVPIYYFSDLKLTLANPFDEK | failed
16 | MTWLMVAVVVVVAAAGLLRWRRPAWYWLTFGALVATVRILVRYASVMEACGLTVPPSRWRLALARMTNRPAPESRPPRILRLRPTRTGLVLRLKLQPGQDAFDVAAATDRLRHSFGVYGVTSRELRSGVVEVRMTGYDVLQRVQMPAPAEPRPMRIPVALREDGAVHYRDYRAVPHGLTLGATESGKSVYQRNLVAGLAPHHVALVGIDCKQGVELFPLARRFSALADNPDTALDLLEALVGHMKDVYQLIRAEQRISVAVPDAEIAADIWDLREDLRAVPVVVLVDEVAELALFASKDEEKRRDRIITALVRLAQLGRAAGIYLEICGQRFGSELGKGITMLRAQLTGRTAHRVNDETSADMAFGDLSPDAVLAAIQLPTDTPGIAVTGDSTGGWARIRAPHTTKSFPDRQKRLAELWLIEIASDMSRGRYVDPRAARVTFKGYAVKWLETHGIDPASQVVVEQRLRLHAFRLIGSRPLDSFRPEHIRGLVSALENDPAVSGGYARNIYGDVRAVLSAAVDDGLLPRNPCSAKSVRPPAVEQRRVVPWLPEQVQAVRAALPQRYRPMVDMGAGCGLRQGEIVGLAEDAVDFASGIVRVLRQVKLIRGKAVFAPPKCNKERDVPLPPSVADALPAHMDAFKPVEITLPWRKPDGPKVSARLLFTNTASGLVWRSNFNVQEWKPALAAAGLISEAGADGKYESAREHGMHALRHFYASVLLDAGESIKAVSEYLGHADPGLTLRVYAHLMPSSQERTRSAIDQSLRFSG | failed
